Patent US20110135636A1 (SYMPHOGEN A S, published 2011)

Experiments:
[1] = molecular target: T1, recombinant human EGFR extracellular domain with 6xHis (human, UniProt P00533 25-645); test: SPR competition, competitor Ab-1
T1 construct: In-house produced; also called 6xHis EGFR ECD; soluble human EGFR ECD; not shown: 6xHis tag
Procedure: (§1) SPR analysis was performed on a Biacore 3000 machine containing four flow cells. A CM5 Biacore chip was conjugated with 10,000 Resonance units (Ru) polyclonal anti-His antibody to flow cells 1-4 according to the manufacturer's instructions. […] Immediately after antigen injection the maximal binding of the Anti-EGFR mAb without competition was established in each flow cell during a reference run. Briefly 5 μl antibody at a concentration of 40 μg/ml was injected over all flow cells with captured EGFR followed by stripping of the antibody/antigen complex with a low pH acid wash (10 sec. contact time with 10 mM Glycine-HCl, pH2). After the determination of Anti-EGFR antibody maximal binding to each flow cell, a competition run was performed during the same Biacore cycle. Flow cells were first saturated with EGFR ECD antigen followed by injection of different reference antibodies or Anti-EGFR antibodies into separate flow cells using the same antigen saturating conditions as outlined above. This step was immediately followed by a second injection of Anti-EGFR antibody over the flow cell saturated with EGFR antigen and competition antibody to minimize the dissociation of either antigen or blocking antibody. Then the antibody/antigen complexes were stripped off with a low pH acid wash (10 sec. contact time with 10 mM Glycine-HCl, pH 2) and the whole cycle beginning with the reference run was repeated with a new Anti-EGFR antibody. The degree of inhibition of tested Anti-EGFR antibodies were determined by comparing the Ru max value of the individual Anti-EGFR antibody before and after competition by introduction of report points recorded two seconds before and after injection of each sample.

[2] = molecular target: T1, recombinant human EGFR extracellular …; test: SPR competition, competitor Ab-3
Procedure: as §1

[3] = molecular target: T1, recombinant human EGFR extracellular …; test: SPR competition, competitor Ab-5
Procedure: as §1

[4] = molecular target: T1, recombinant human EGFR extracellular …; test: SPR competition, competitor 1024
Procedure: as §1

[5] = molecular target: T1, recombinant human EGFR extracellular …; test: SPR competition, competitor 1208
Procedure: as §1

[6] = molecular target: T1, recombinant human EGFR extracellular …; test: SPR competition, competitor 1254
Procedure: as §1

[7] = molecular target: T1, recombinant human EGFR extracellular …; test: SPR competition, competitor 1257
Procedure: as §1

[8] = molecular target: T1, recombinant human EGFR extracellular …; test: SPR competition, competitor 1260
Procedure: as §1

[9] = molecular target: T1, recombinant human EGFR extracellular …; test: SPR competition, competitor 1261
Procedure: as §1

[10] = molecular target: T1, recombinant human EGFR extracellular …; test: SPR competition, competitor 1277
Procedure: as §1

[11] = molecular target: T1, recombinant human EGFR extracellular …; test: SPR competition, competitor 1284
Procedure: as §1

[12] = molecular target: T1, recombinant human EGFR extracellular …; test: SPR competition, competitor 1308
Procedure: as §1

[13] = molecular target: T1, recombinant human EGFR extracellular …; test: SPR competition, competitor 1320
Procedure: as §1

[14] = molecular target: T1, recombinant human EGFR extracellular …; test: SPR competition, competitor 1344
Procedure: as §1

[15] = molecular target: T1, recombinant human EGFR extracellular …; test: SPR competition, competitor 1347
Procedure: as §1

[16] = molecular target: T1, recombinant human EGFR extracellular …; test: SPR competition, competitor 1449
Procedure: as §1

[17] = molecular target: T1, recombinant human EGFR extracellular …; test: SPR competition, competitor Ab-10
Procedure: as §1

[18] = molecular target: T1, recombinant human EGFR extracellular …; test: SPR competition, competitor Ab-11
Procedure: as §1

[19] = molecular target: T1, recombinant human EGFR extracellular …; test: SPR competition, competitor ICR10
Procedure: as §1

[20] = molecular target: T1, recombinant human EGFR extracellular …; test: SPR competition, competitor Erbitux
Procedure: as §1

[21] = molecular target: T1, recombinant human EGFR extracellular …; test: SPR competition, competitor Erbitux; remark: listed apart in the source
Procedure: as §1

[22] = molecular target: T1, recombinant human EGFR extracellular …; test: SPR competition, competitor Vectibix
Procedure: as §1

[23] = molecular target: T1, recombinant human EGFR extracellular …; test: SPR competition, competitor 1030corr
Procedure: as §1

[24] = molecular target: T1, recombinant human EGFR extracellular …; test: SPR competition, competitor 992 corr
Procedure: as §1

[25] = molecular target: T1, recombinant human EGFR extracellular …; test: SPR competition, competitor Vectibix; remark: listed apart in the source
Procedure: as §1

Binder | % inhibition [1] [%] | % inhibition [2] [%] | % inhibition [3] [%] | % inhibition [4] [%] | % inhibition [5] [%] | % inhibition [6] [%] | % inhibition [7] [%] | % inhibition [8] [%] | % inhibition [9] [%] | % inhibition [10] [%] | % inhibition [11] [%] | % inhibition [12] [%] | % inhibition [13] [%] | % inhibition [14] [%] | % inhibition [15] [%] | % inhibition [16] [%] | % inhibition [17] [%] | % inhibition [18] [%] | % inhibition [19] [%] | % inhibition [20] [%] | other results
antibody 992 (antibody, human IgG1, kappa, V domains shown, Chimeric mouse/human IgG1 kappa; the VL entry includes the human kappa constant region) VH: EVQLQQPGSELVRPGASVKLSCKASGYTFTSYWMHWVKQRPGQGLEWIGNIYPGSRSTNYDEKFKSKATLTVDTSSSTAYMQLSSLTSEDSAVYYCTRNGDYYVSSGDAMDYWGQGTSVTVSS VL: DIQMTQTTSSLSASLGDRVTISCRTSQDIGNYLNWYQQKPDGTVKLLIYYTSRLHSGVPSRFSGSGSGTDFSLTINNVEQEDVATYFCQHYNTVPPTFGGGTKLEIKR | 99 | 7 | 1 | -55 | 109 | 128 | 16 | -10 | -13 | 110 | 6 | -9 | -38 | 9 | 7 | 98 | -4 | -3 | -4 | 90 | % inhibition [21]: 90%; % inhibition [22]: 106%; % inhibition [23]: -18%; % inhibition [24]: 96%; % inhibition [25]: 125%
antibody 1024 (antibody, human IgG1, kappa, V domains shown, Chimeric IgG1 kappa) VH: QVQLQQPGAELVEPGGSVKLSCKASGYTFTSHWMHWVKQRPGQGLEWIGEINPSSGRNNYNEKFKSKATLTVDKSSSTAYMQFSSLTSEDSAVYYCVRYYGYDEAMDYWGQGTSVTVSS VL: DIVMTQAAFSNPVTLGTSASISCRSSKSLLHSNGITYLYWYLQKPGQSPQLLIYQMSNLASGVPDRFSSSGSGTDFTLRISRVEAEDVGVYYCAQNLELPYTFGGGTKLEIKR | 6 | 0 | 0 | 96 | -7 | 5 | 22 | 35 | -27 | -1 | -2 | -3 | 86 | 1 | 2 | 78 | -5 | -13 | -3 | 104 | % inhibition [21]: 104%; % inhibition [22]: 102%; % inhibition [23]: 3%; % inhibition [24]: -58%; % inhibition [25]: 82%
antibody 1030 (antibody, human IgG1, kappa, V domains shown, Chimeric IgG1 kappa) VH: EVQLVESGGGLVKPGGSLKLSCAASGFTFSSYALSWVRQTPERRLEWVASISGVGSTYFPDSVKGRFTMSRDNARNILYLQMSSLRSEDTAMYYCARGSDGYFYAMDYWGQGTSVTVSS VL: DIVLTQSPASLAVSLGQRATISCRASKSVSTSGYSFMHWYQLKPGQPPKLLIYLASNLESGVPARFSGSGSGTDFTLNIHPVEEEDAATYYCQHSREFPLTFGGGTKLEIKR | 98 | 6 | 104 | -1 | 112 | 107 | 5 | 16 | 8 | 103 | 32 | -12 | 4 | 24 | 6 | 4 | 84 | -5 | 54 | -1 | % inhibition [21]: -1%; % inhibition [22]: 16%; % inhibition [23]: 89%; % inhibition [24]: -3%; % inhibition [25]: 17%

Now from value to binder, other results behind:

% inhibition [1] [%] | % inhibition [2] [%] | % inhibition [3] [%] | % inhibition [4] [%] | % inhibition [5] [%] | % inhibition [6] [%] | % inhibition [7] [%] | % inhibition [8] [%] | % inhibition [9] [%] | % inhibition [10] [%] | % inhibition [11] [%] | % inhibition [12] [%] | % inhibition [13] [%] | % inhibition [14] [%] | % inhibition [15] [%] | % inhibition [16] [%] | % inhibition [17] [%] | % inhibition [18] [%] | % inhibition [19] [%] | % inhibition [20] [%] | Binder | other results
-1 | 85 | -5 | 17 | 17 | 8 | 90 | 68 | 103 | 11 | 16 | 27 | 15 | 80 | 21 | 15 | 1 | 100 | 22 | 0 | antibody 1257 (antibody, human IgG1, kappa, V domains shown, Chimeric IgG1 kappa) VH: EVQLQQSGPELVKPGASVKIPCKTSGYTFTDYNMAWVKQSHGKSLEWIGDIIPNNGGAIYNQKFKGKATLTVDKSSSTASMELRSLTSEDTAVYFCARKNIYYRYDGAGALDYWGQGTSVTVSS VL: QIVLTQSPAIMSASPGEKVTMTCSASSSVSYIYWYQQKPGSSPRLLIYDASNLASGVPVRFSGSGSGTSYSLTISRMEAEDAATYYCQQWSSYPITFGSGTKLEIKR | % inhibition [21]: 0%; % inhibition [22]: -2%; % inhibition [23]: 4%; % inhibition [24]: 16%; % inhibition [25]: 15%
-4 | 54 | -3 | -24 | -24 | -12 | 58 | 75 | 95 | -19 | -8 | -10 | -18 | 65 | 4 | -20 | -6 | 94 | 24 | -2 | antibody 1261 (antibody, human IgG1, kappa, V domains shown, Chimeric IgG1 kappa) VH: EVQLVESGGGLVKPGGSLKLSCAVSGFTFSSYVMSWVRQTPEKRLEWVATITSGGRNIYYLDSVKGRFTISRDNAKNTLYLQMSSLRSEDTAMYYCARHEDYRYDGYYAMDYWGQGTSVTVSS VL: QIVLTQSPAIMSASPGEKVTITCSASSSVSYMHWFQQKPGTSPKLWIYSTSNLASGVPARFSGSGSGTSYSLTISRMEAEDAATYYCQQRSSYPYTFGGGTKLELKR | % inhibition [21]: -2%; % inhibition [22]: -5%; % inhibition [23]: -6%; % inhibition [24]: 14%; % inhibition [25]: -21%
